Each block holds one binder with its values, some of them ahead of it.
Target: flag-tagged paxillin (UniProt P49023 1-591)
Experiment: BLI

Chain of flag-tagged paxillin (P49023 whole entry): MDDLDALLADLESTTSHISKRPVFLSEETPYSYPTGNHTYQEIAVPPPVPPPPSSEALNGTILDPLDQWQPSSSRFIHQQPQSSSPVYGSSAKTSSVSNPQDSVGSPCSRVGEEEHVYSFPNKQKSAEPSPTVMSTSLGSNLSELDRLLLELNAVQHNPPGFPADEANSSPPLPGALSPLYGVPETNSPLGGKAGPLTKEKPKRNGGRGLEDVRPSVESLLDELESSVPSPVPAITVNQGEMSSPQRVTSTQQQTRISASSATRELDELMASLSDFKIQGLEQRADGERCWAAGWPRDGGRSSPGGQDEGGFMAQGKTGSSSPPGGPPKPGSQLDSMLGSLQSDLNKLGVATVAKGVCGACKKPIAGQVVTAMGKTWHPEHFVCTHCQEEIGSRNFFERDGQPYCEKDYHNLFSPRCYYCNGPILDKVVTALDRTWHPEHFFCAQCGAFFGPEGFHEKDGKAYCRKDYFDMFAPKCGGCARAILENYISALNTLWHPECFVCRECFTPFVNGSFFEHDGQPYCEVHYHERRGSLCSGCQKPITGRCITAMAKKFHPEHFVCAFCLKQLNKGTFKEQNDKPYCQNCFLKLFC

- Kd: 14.2 µM
B1: GST-fused PH domain of kindlin-1 (374–496) (domain or fragment, UniProt Q9BQL6 374-496, looked up)
chain: DNLKLFRPKKLLPKAFKQYWFIFKDTSIAYFKNKELEQGEPLEKLNLRGCEVVPDVNVAGRKFGIKLLIPVADGMNEMYLRCDHENQYAQWMAACMLASKGKTMADSSYQPEVLNILSFLRMK

- Kd: 23.5 µM
B2: GST-fused PH domain of kindlin-2 (374–499) (domain or fragment, UniProt Q96AC1 374-499, looked up)
chain: ELADYIKVFKPKKLTLKGYKQYWCTFKDTSISCYKSKEESSGTPAHQMNLRGCEVTPDVNISGQKFNIKLLIPVAEGMNEIWLRCDNEKQYAHWMAACRLASKGKTMADSSYNLEVQNILSFLKMQ

- Kd: 7.6 µM
B3: GST-fused PH domain of kindlin-3 (351–476) (domain or fragment, UniProt Q86UX7-2 351-476, looked up)
chain: ELKDHLRIFRPRKLTLKGYRQHWVVFKETTLSYYKSQDEAPGDPIQQLNLKGCEVVPDVNVSGQKFCIKLLVPSPEGMSEIYLRCQDEQQYARWMAGCRLASKGRTMADSSYTSEVQAILAFLSLQ

From PMC9080902 (Journal of thrombosis and haemostasis : JTH, 2021)
